Laboratory results reported in article PMC6471432, “The 3′ Untranslated Region of a Plant Viral RNA Directs Efficient Cap-Independent Translation in Plant and Mammalian Systems”.

Experiments:
human eIF4E [1] = molecular target: T1, human eIF4E (Homo sapiens, UniProt P06730 1-217); experiment: EMSA; EMSA: 10 mM HEPES pH 7.5, 20 mM KCl, 1 mM DTT, 3 mM MgCl2, 1 ug/uL tRNA, 0.5 ug/uL BSA, 1 U/uL RNaseOUT, 5% glycerol, 10 uL, 25 min on ice, gel at 4 C; SHAPE: benzoyl cyanide, 22 C; conditions: protein: recombinant; label: 32P; pseudoknot between C and G domains
human eIF4E [2] = molecular target: T1, human eIF4E; experiment: EMSA; text: not shifted by 2 uM; EMSA: 10 mM HEPES pH 7.5, 20 mM KCl, 1 mM DTT, 3 mM MgCl2, 1 ug/uL tRNA, 0.5 ug/uL BSA, 1 U/uL RNaseOUT, 5% glycerol, 10 uL, 25 min on ice, gel at 4 C; SHAPE: benzoyl cyanide, 22 C; conditions: protein: recombinant; label: 32P; pseudoknot between C and G domains; three bands without protein

T1 sequence (P06730 whole entry): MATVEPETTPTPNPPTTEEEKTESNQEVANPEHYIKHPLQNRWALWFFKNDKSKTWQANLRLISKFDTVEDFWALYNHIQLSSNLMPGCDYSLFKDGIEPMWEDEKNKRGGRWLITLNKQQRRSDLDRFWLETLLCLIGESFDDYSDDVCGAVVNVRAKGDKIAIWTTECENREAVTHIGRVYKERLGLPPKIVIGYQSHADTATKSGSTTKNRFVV

Binder | Kd (human eIF4E [1]) | Kd (human eIF4E [2])
TPAV PTE capped (structured_RNA, 5' cap) RNA: GGACAAGACCCCAGGCGGGACGCCACACCCAUGUUUGCAGACAUGGCCCGAGGAAACUCUGGUGUGGGCUGGGGGGAAUCC | 160 ± 1 nM | –
TPAV PTE uncapped (structured_RNA) RNA: GGACAAGACCCCAGGCGGGACGCCACACCCAUGUUUGCAGACAUGGCCCGAGGAAACUCUGGUGUGGGCUGGGGGGAAUCC | 838 ± 124 nM | –
PEMV2 PTE capped (structured_RNA, 5' cap) RNA: GUAGUGGUAGAACACGUGGGAUAGGGGAUGACCUUGUCGACCGGUUAUCGGUCCCCUGCUCCUUCGAGCUGGCAAGGCGCUCACAGGUUCUACACUGCUACUA | 285 ± 33 nM | –
PEMV2 PTE uncapped (structured_RNA) RNA: GUAGUGGUAGAACACGUGGGAUAGGGGAUGACCUUGUCGACCGGUUAUCGGUCCCCUGCUCCUUCGAGCUGGCAAGGCGCUCACAGGUUCUACACUGCUACUA | – | 2520 ± 435 nM
